Results taken from paper PMC12164381.

Key:
Test in all cases: SPR
[1] = target: SARS-CoV-2 Spike RBD, original (Wuhan) strain (SARS-CoV-2, original Wuhan strain) (UniProt P0DTC2)
[2] = target: Efficient evolution design from the S309 starting point (Table 4, design row 1, the 4th table, row 4)
[3] = target: Inverse folding design from the DXP-604 starting point (Table 5, design row 1, the 5th table, row 4)
[4] = target: Inverse folding design from the DXP-604 starting point (Table 5, design row 7, the 5th table, row 10)
[5] = target: Inverse folding design from the DXP-604 starting point (Table 5, design row 6, the 5th table, row 9)
[6] = target: Inverse folding design from the DXP-604 starting point (Table 5, design row 5, the 5th table, row 8)
[7] = target: Inverse folding design from the DXP-604 starting point (Table 5, design row 4, the 5th table, row 7)
[8] = target: S309
[9] = target: OAS scanning design from the DXP-604 starting point (Table 2, 1st design row, the 2nd table, row 8)
[10] = target: Inverse folding design from the DXP-604 starting point (Table 5, design row 3, the 5th table, row 6)
[11] = target: Inverse folding design from the DXP-604 starting point (Table 5, design row 2, the 5th table, row 5)
[12] = target: DXP-604
[13] = target: Inverse folding design from the LY-CoV1404 starting point (Table 5, design row 1, the 5th table, row 12)
[14] = target: Efficient evolution design from the S309 starting point (Table 4, design row 5, the 4th table, row 8)
[15] = target: Inverse folding design from the LY-CoV1404 starting point (Table 5, design row 2, the 5th table, row 13)
[16] = target: Efficient evolution design from the S309 starting point (Table 4, design row 2, the 4th table, row 5)
[17] = target: BD55–5840
[18] = target: OAS scanning design from the DXP-604 starting point (Table 2, 2nd design row, the 2nd table, row 9)
[19] = target: Efficient evolution design from the S309 starting point (Table 4, design row 3, the 4th table, row 6)
[20] = target: Efficient evolution design from the S309 starting point (Table 4, design row 6, the 4th table, row 9)

Q: For DXP-604 (antibody), which pKD [1] is on record?
A: The pKD was 9.67 -log10(KD).

Q: With “SARS-CoV-2 Spike RBD, XBB.1 strain (from UniProt P0DTC2) (domain or fragment)” as the substance, how does the pKD [2] read?
A: The pKD was 8.7 -log10(KD).

Q: What about the pKD [3] of the same substance?
A: The pKD was 5.78 -log10(KD).

Q: What about the pKD [4] of the same substance?
A: Its pKD is 6.15 -log10(KD).

Q: And the pKD [5]?
A: Its pKD is 6.37 -log10(KD).

Q: What about the pKD [6] of the same substance?
A: The pKD was 5.91 -log10(KD).

Q: What about the pKD [7] of the same substance?
A: Its pKD is 5.84 -log10(KD).

Q: What about the pKD [8] of the same substance?
A: Its pKD is 8.93 -log10(KD).

Q: What about the pKD [9] of the same substance?
A: Its pKD is 5.35 -log10(KD).

Q: What about the pKD [10] of the same substance?
A: Its pKD is 5.12 -log10(KD).

Q: And the pKD [11]?
A: The pKD was 5.99 -log10(KD).

Q: What does the source list for “SARS-CoV-2 Spike RBD, XBB.1.5 strain (from UniProt P0DTC2) (domain or fragment)”?
A: pKD [12]: 5.84 -log10(KD); pKD [2]: 8.89 -log10(KD); pKD [13]: 4.87 -log10(KD); pKD [14]: 9.12 -log10(KD); pKD [9]: 5.87 -log10(KD); pKD [15]: 4.88 -log10(KD); pKD [16]: 8.93 -log10(KD); pKD [17]: 6.14 -log10(KD)

Q: With “SARS-CoV-2 Spike RBD, original (Wuhan) strain (from UniProt P0DTC2) (domain or fragment)” as the substance, how does the pKD [2] read?
A: The pKD was 8.7 -log10(KD).

Q: What about the pKD [18] of the same substance?
A: The pKD was 9.38 -log10(KD).

Q: What about the pKD [9] of the same substance?
A: The pKD was 9.07 -log10(KD).

Q: And the pKD [19]?
A: Its pKD is 8.7 -log10(KD).

Q: And the pKD [20]?
A: Its pKD is 8.7 -log10(KD).
